Measured values reported in publication PMC5409509, “The mismatch repair and meiotic recombination endonuclease Mlh1-Mlh3 is activated by polymer formation and can cleave DNA substrates in trans”.

T1: Mlh1-Mlh3 (Saccharomyces cerevisiae, UniProt P38920;Q12083 1-769;1-715)
T1 sequence 1: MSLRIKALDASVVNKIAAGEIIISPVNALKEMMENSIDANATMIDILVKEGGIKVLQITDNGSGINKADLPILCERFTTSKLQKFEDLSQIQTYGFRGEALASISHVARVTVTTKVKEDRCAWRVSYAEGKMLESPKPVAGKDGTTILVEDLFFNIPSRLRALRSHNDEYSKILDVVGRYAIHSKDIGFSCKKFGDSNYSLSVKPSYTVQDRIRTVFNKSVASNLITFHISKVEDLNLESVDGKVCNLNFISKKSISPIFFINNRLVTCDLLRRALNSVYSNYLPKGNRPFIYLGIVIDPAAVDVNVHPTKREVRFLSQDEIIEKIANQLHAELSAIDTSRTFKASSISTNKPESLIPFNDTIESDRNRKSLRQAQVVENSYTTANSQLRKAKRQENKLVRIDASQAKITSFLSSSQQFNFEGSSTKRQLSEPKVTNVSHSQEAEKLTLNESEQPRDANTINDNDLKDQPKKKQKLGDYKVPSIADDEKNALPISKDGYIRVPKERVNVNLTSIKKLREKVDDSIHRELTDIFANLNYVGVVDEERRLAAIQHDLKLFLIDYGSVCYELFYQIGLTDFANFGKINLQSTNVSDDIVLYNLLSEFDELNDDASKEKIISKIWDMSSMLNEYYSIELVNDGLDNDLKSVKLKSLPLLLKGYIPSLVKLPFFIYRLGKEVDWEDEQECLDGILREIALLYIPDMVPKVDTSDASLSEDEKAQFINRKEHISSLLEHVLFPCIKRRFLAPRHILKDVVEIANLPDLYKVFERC
T1 sequence 2: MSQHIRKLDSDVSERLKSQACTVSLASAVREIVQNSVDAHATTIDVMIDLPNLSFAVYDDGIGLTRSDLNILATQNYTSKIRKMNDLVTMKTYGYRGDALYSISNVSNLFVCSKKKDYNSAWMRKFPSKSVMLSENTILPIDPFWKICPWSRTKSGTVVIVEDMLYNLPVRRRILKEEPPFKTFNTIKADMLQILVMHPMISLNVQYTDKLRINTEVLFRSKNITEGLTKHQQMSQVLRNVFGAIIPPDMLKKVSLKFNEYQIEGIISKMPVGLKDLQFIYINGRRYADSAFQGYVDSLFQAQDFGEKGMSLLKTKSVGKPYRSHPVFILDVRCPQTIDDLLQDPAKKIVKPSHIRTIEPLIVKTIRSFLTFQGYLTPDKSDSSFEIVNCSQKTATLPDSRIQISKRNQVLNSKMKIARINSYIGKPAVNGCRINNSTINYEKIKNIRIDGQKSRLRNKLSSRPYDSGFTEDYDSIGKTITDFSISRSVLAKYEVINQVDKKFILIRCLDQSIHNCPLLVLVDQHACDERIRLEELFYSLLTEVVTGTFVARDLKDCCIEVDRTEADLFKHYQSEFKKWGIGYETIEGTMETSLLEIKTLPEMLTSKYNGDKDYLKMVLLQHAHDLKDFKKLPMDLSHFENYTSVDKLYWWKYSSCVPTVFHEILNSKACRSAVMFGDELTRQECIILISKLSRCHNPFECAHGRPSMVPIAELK


Experiments:
[1] = molecular target: T1, Mlh1-Mlh3; assay: competition; very strong competitor of plasmid nicking, 0-2000 nM, 1 mM Mg2+; Filter binding: 20 mM Tris-HCl pH 7.5, 0.01 mM EDTA, 2 mM MgCl2, 40 ug/mL BSA, 0.1 mM DTT, 15 uM nucleotide DNA, 10 min at 30 C (20 or 150 mM KCl in Fig 4B; KCl not stated for Fig 4A); settings: protein: recombinant; copies: 1;1; 4-way junction with 26 bp mobile homologous core
[2] = molecular target: T1, Mlh1-Mlh3; assay: competition; very strong competitor of plasmid nicking, 0-2000 nM oligo, 1 mM Mg2+; Filter binding: 20 mM Tris-HCl pH 7.5, 0.01 mM EDTA, 2 mM MgCl2, 40 ug/mL BSA, 0.1 mM DTT, 15 uM nucleotide DNA, 10 min at 30 C (20 or 150 mM KCl in Fig 4B; KCl not stated for Fig 4A); settings: protein: recombinant; copies: 1;1; blunt

Row | Binder | binding result [1] | binding result [2]
1 | Holliday junction X26 (structured_DNA) DNA 1: GCGCTACCAGTGATCACCAATGGATTGCTAGGACATCTTTGCCCACCTGCAGGTTCACCC DNA 2: GGGTGAACCTGCAGGTGGGCAAAGATGTCCTAGCAATCCATTGTCTATGACGTCAAGCTC DNA 3: GAGCTTGACGTCATAGACAATGGATTGCTAGGACATCTTTGCCGTCTTGTCAATATCGGC DNA 4: GCCGATATTGACAAGACGGCAAAGATGTCCTAGCAATCCATTGGTGATCACTGGTAGCGC | binds | 
2 | +8 loop oligonucleotide (AO3142/AO3143) (dsDNA) DNA 1: GGGTCAACGTGGGCAAAGATGTCCTAGCAAGTCAGAATTCGGTAGCGTG DNA 2: CACGCTACCGAATTCTGACTTGCTAGGTGTGTGTGACATCTTTGCCCACGTTGACCC |  | binds
